In article PMC4406087, “Remaining challenges in cellular flavin cofactor homeostasis and flavoprotein biogenesis” (Frontiers in Chemistry, 2015):

Assays:
[1] = system: T1, Nc1ncnc2c1ncn2[C@@H]1O[C@H](COP(=O)(O)OP(=O)(O)OP(=O)(O)O)[C@@H](O)[C@H]1O; experiment: spectrofluorimetric FAD synthesis assay; format: biochemical, Homo sapiens; details: 50 mM Tris-HCl pH 7.5, 5 mM MgCl2, 37°C, FMN 0.1-2 μM, ordered bi-bi, ATP binds first
T1 construct: recombinant 6His-tagged cytosolic isoform 2, purified

[2] = system: T2, Cc1cc2nc3c(=O)[nH]c(=O)nc-3n(C[C@H](O)[C@H](O)[C@H](O)COP(=O)(O)O)c2cc1C; experiment: spectrofluorimetric FAD synthesis assay; format: biochemical, Homo sapiens; details: 50 mM Tris-HCl pH 7.5, 5 mM MgCl2, 37°C, Km app at the highest ATP (ATP 1 to 100 μM; 8 μM at lowest ATP)
T2 construct: recombinant 6His-tagged cytosolic isoform 2, purified

6His-hFADS2 (Homo sapiens), sequence (chain, as listed by the source): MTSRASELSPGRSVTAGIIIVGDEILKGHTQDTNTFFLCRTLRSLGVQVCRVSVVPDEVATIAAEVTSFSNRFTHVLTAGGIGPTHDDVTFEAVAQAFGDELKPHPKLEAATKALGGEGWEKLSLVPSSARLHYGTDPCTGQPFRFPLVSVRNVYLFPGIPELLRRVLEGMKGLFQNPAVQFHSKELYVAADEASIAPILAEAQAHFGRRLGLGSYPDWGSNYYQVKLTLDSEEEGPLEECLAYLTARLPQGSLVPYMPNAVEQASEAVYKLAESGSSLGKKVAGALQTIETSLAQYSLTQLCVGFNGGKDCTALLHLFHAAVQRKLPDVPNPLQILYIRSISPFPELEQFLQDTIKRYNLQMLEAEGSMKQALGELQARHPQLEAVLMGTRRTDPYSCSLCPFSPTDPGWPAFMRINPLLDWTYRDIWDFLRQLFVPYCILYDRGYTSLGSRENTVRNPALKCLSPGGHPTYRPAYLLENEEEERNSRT

6His-hFADS2 (Homo sapiens)
Km [1]: 15 µM | Km [2]: 0.4 µM
